Data from the supplement of paper PMC7125110.
± gives the standard error. This sample holds only a part of the variants without activity.

B1: glmS ribozyme (parent)
chain: AUAAAAGCGCCAGAACUACAGAAAUGUAGUUGACGAGGAGGAGGUUUAUCGAAUUUUCGGCGGAUGCCUCCAAA

Variants of: B1
Assay: self-cleavage kobs at 10000 uM GlcN6P; higher = faster cleavage; RNA array
Conditions: with glucosamine-6-phosphate
Procedure, shortened: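 kcat and KM were obtained from weighted Michaelis–Menten fits across concentrations of kobs values. Those came from one- or two-exponential decay fits to per-tile medians normalised to baseline and to non-cleaving reference variants. The variants were barcoded ribozymes transcribed in situ by E. coli RNA polymerase on sequenced MiSeq chips and tracked through a hybridised Cy3 probe at 37 °C, with 40 μM to 10 mM glucosamine-6-phosphate in HEPES/KCl/Mg(OAc)2 buffer flowed in.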

Variant | self-cleavage kobs at 10000 uM GlcN6P [s⁻¹]
A36C G41U C50G G60U C61G | < 1e-05
G41C C58A C61U | < 1e-05
C34A G43A U49G C70G | < 1e-05
A36C U57A | < 1e-05
G43A C71G | < 1e-05
A33C A36G U47G G51A | < 1e-05
A33C G43A G44C C61A C67U | < 1e-05
A36G A53C C67A | < 1e-05
C50U G60U C61A | < 1e-05
U45G U57G | 3.68e-05 ± 9e-06
U46G C50G C67G | < 1e-05
A36C C61A | < 1e-05
G44A U46G U54G | 0.000373 ± 0.0001
U49A C61A | < 1e-05
A48U G59U C68A | < 1e-05
U49G C61G | < 1e-05
U56C G66A C71U | 0.000503 ± 0.00011
A39G G43U G44U C67G | 5.34e-05 ± 1.9e-05
G35U U47C G51U | < 1e-05
G40U G62U C68G | < 1e-05
U57A A64G | 0.000214 ± 4.6e-05

Variant | self-cleavage kobs at 10000 uM GlcN6P [s⁻¹]
G32U G43U U69C | < 1e-05
U56C A64C U65A | < 1e-05
A42G U46A A64G | 0.00462 ± 0.0009
A36C U56C | < 1e-05
G35C C50A G51A | < 1e-05
U30G A42U | 3.53e-05 ± 8.7e-06
G44U U65A | 5.28e-05 ± 1.3e-05
A33U G40C U56A G60C C71U | < 1e-05
C50U C61U C67U | < 1e-05
A53G U57G C67G C68A | < 1e-05
G37A G40A C58U G66C | < 1e-05
G32U U57A | 6.86e-05 ± 8.1e-06
C50G U54C C71U | 4.14e-05 ± 1.5e-05
U54A C58U | 6.81e-05 ± 1e-05
U47A U54G U55A C70A | 0.000105 ± 3e-05
A33C G44C G60A | < 1e-05
G37A U54A G66U | 0.000359 ± 8.7e-05
G43A U55G U57A U65G | < 1e-05
G40U G43U G62A | < 1e-05
U31A U47G A48G | 3.62e-05 ± 1.3e-05
G37A A39G U54G U55A | 0.00276 ± 0.00061

Variant | self-cleavage kobs at 10000 uM GlcN6P [s⁻¹]
A39G U65G C70U | 0.0203 ± 0.0059
U45A U56A | 0.0179 ± 0.0079
U31C C58A G63U | < 1e-05
G38U C50G U55G U57G | 7.32e-05 ± 2e-05
U31G A36U G40C U56G G66A | < 1e-05
G59C G66A | < 1e-05
U54A C67U C70A | 4.02e-05 ± 1.6e-05
A33C A39G U69G | < 1e-05
A39C G59A C68A | < 1e-05
G32A G37C G40A | < 1e-05
A36U A52U U65G U69C | < 1e-05
A33G G37C C50G C68A | 0.00162 ± 0.00046
U31C C67G C70A | < 1e-05
G44U C58U G62U C68A | < 1e-05
G40U A48G C70A | 3.93e-05 ± 9.6e-06
G35C A48U C70G | < 1e-05
G41U U69A | 3.54e-05 ± 1.5e-05
U46G C61G G63A | < 1e-05
A39U G44A C67G | 0.00582 ± 0.0014
G32A A42G A53G | 0.00295 ± 0.00072
